# Experimental data published in patent US20230183305A1, “KERATIN BD-11, PREPARATION METHOD THEREFOR AND PHARMACEUTICAL COMPOSITION AND USE THEREOF” (INSTITUTE OF MATERIA MEDICA, CHINESE ACADEMY OF MEDICAL …, priority 2019, published 2023).
# B1: BD-11: recombinant keratin, amino acid sequence SEQ ID NO:1, expressed in E. coli, band around 59 kD; Example 4 batch tested (protein, listed as Bos taurus)
# chain: MSRQSTITFQTSSRRGFSTASATTPATSRSRFSSASVTHSPAGSGGLGRISGFGSRSLYNLGGTKRVSISGCGSNFRSGFGGRASSGFGVSGGFGYGGGIGGGHGGCGFSVCPPGGIQEVTVNQSLLTPLNLQIDPNIQRVRKEEREQIKTLNNKFASFIDKVRFLEQQNKVLETKWSLLQEQGTRTVRQSLEPFFEAYITDLRRQLDSITTERGRLDAELRTMQDVVEDFKVRYEDEINKRTAAENEFVALKKDVDAAYLNKVDLEAKANSLTDEINFLQMLFEAELCQMQTRVSDTSVVLSMDNNRSLDLDSIIAEVKAQYEEIANRSRAEAESWYQTKYEELQVTAGQHGDDLRNTKQEISETNRMIQRLRAEIDNVKKQCASLQTAIADAEQRGELALKDARAKLVDLEEALQKSKQDMARLLREYQELMNIKLALDVEIATYRKLLEGEECRLSGEGVSPVNISVVTSTVSSGYGGGSSIGSGSLGLSGGSGCSFMTSGGHSLGGSSFSNSSSRGLGGSGSSFKFVSTTSSSRKSYKH
# Tested on: PLO-induced epilepsy in ICR mice
# Assay: Pilocarpine (PLO) induced convulsive epilepsy in mice
# Type: in vivo, mouse
# Design: mortality rate: unit not given here
# Conditions: for Cases of deaths / Grade IV seizure rate / mortality rate / Cases of Grade IV: PLO 225 mg/kg i.p., 10 mice; for Cases of Grade IV: 30 min observation; for Grade II seizure incubation period / Grade III seizure incubation period / Grade IV seizure incubation period: mean±SEM; for Grade IV seizure incubation period: no Grade IV recorded as maximum 1800 s
# Description: • Animals: male ICR mice; • Drugs: Pilocarpine HCl (PLO, pilocarpine, pilocarpine hydrochloride), Diazepam (diazepam tablets), protein BD-11.
# Experiment grouping: • Model group: • Diazepam 2 mg/kg group; • Protein BD-11, 50 mg/kg group, 200 mg/kg group.
# The drug was administered once in the afternoon the day before modeling, PLO-225 mg/kg (modeling agent) was injected intraperitoneally 1 hour after the test drug was administered intragastrically on the day of modeling. And positive drug can be administered once 20 minutes before modeling. Observe for 30 minutes after PLO injection.
# Observation indicators: ①Seizure situation: the time of seizures from Grade II to Grade IV; (2)the time to death.
# Seizure grade: Refer to Racine grading standard: Grade 0: No response; Grade I: manifested as twitching of facial muscles or the corners of the mouth; Grade II: can nod; Grade III: twitching of one limb; Grade IV: rigidity or body twitching; Grade V: generalized epilepsy (generalized tonic seizures).
# Count the number of Grade IV seizures and deaths in each group of mice in the experiment; Grade II, III and IV incubation period. […] Chi-square test was used for statistics of the number of cases. The mean value and standard error of the incubation period were calculated, and TTEST was used to compare the model group with other groups. P<0.05 was considered as a significant difference.
molecule,measurement,setting,value
B1,Cases of deaths,BD-11 50 mg/kg intragastric,0
same,Grade IV seizure rate,BD-11 50 mg/kg intragastric,50%
same,mortality rate,BD-11 50 mg/kg intragastric,0
same,Cases of Grade IV,BD-11 50 mg/kg intragastric,5
same,Grade II seizure incubation period,"BD-11 50 mg/kg, PLO model",95 ± 6 s
same,Grade III seizure incubation period,"BD-11 50 mg/kg, PLO model",164 ± 10 s
same,Grade IV seizure incubation period,"BD-11 50 mg/kg, PLO model",1357 ± 154 s
same,"Incubation period of epilepsy Grade III, comparison with model group","BD-11 200 mg/kg dose group, PLO model",statistically different from the model group
same,Cases of deaths,BD-11 200 mg/kg intragastric,0
same,Grade IV seizure rate,BD-11 200 mg/kg intragastric,60%
same,mortality rate,BD-11 200 mg/kg intragastric,0
same,Cases of Grade IV,BD-11 200 mg/kg intragastric,6
same,Grade II seizure incubation period,"BD-11 200 mg/kg, PLO model",96 ± 6 s
same,Grade III seizure incubation period,"BD-11 200 mg/kg, PLO model",164 ± 7 s
same,Grade IV seizure incubation period,"BD-11 200 mg/kg, PLO model",1114 ± 191 s
same,Effect on incubation period of Grade III epilepsy in mice (summary),dose not given,significantly prolong the incubation period of Grade III epilepsy
